US20220057408A1

Target: CD3 (Homo sapiens (Human)) (UniProt P07766)
Test: IHC on tissue (human tonsil), 1ug/mL primary antibody, detected with Goat Anti-rabbit-HRP/DAB; 6 ROIs, 3 tissues, 95% CI for the mean; P=0.000 against H4K4-E

rabbit anti-CD3(SP162) antibody (unmodified)
Staining Intensity by ImageJ (mean): 62
